{"source": "paper PMC4264680", "binders": {"B1": {"name": "Th GC-R1/CRE duplex WT (EMSA) (dsDNA)", "DNA 1": "GCAGGAGGTAGGAGGTGGGGGACCCAGAGGGGCTTTGACGTCAGCCTGGCC", "DNA 2": "GGCCAGGCTGACGTCAAAGCCCCTCTGGGTCCCCCACCTCCTACCTCCTGC"}, "B2": {"name": "CRE mutant duplex (EMSA) (dsDNA)", "DNA 1": "GCAGGAGGTAGGAGGTGGGGGACCCAGAGGGGCTTGTCATCAGGCCTGGCC", "DNA 2": "GGCCAGGCCTGATGACAAGCCCCTCTGGGTCCCCCACCTCCTACCTCCTGC"}}, "experiment_in_all_cases": "EMSA", "key": {"[1]": {"molecular_target": "T1, CREB (purified) (UniProt P16220 1-327)", "T1 sequence (P16220 whole entry)": "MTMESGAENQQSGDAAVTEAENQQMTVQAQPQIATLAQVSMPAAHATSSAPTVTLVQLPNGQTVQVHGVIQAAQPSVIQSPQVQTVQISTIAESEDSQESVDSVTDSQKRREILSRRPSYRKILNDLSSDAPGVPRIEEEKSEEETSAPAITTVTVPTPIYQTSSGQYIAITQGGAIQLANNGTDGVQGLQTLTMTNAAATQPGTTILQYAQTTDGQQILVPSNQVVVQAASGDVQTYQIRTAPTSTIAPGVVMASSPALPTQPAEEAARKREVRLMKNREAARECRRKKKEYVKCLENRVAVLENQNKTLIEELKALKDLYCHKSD"}, "[2]": {"molecular_target": "hnRNP K (purified);CREB (purified) (;, UniProt P61978;P16220 1-463;1-327, |)", "sequence (P16220 whole entry, chain 2 of 2, other chains not shown)": "as the sequence (P16220 whole entry) above"}, "[3]": {"molecular_target": "T1, CREB (purified)", "remark": "listed apart in the source"}}, "note": "Like-named read-outs stand apart in the source and are kept apart here.", "data": [{"binder": "B1", "values": [{"measurement": "binding result", "setting": "[1]", "result": "binds"}, {"measurement": "binding result", "setting": "[2]", "result": "binds"}]}, {"binder": "B2", "values": [{"measurement": "binding result", "setting": "[3]", "result": "binds"}]}]}
